Values quoted from earlier work as cited in publication PMC4122144.

Columns and labels:
Conditions in all cases: Not stated. Presumably ground-state bR, since the values are compared with calculations on the 1QHJ ground-state structure.
Asp115 = Asp115 (UniProt position 128, ALVGADGIMIG)
Arg82 = Arg82 (UniProt position 95, PIYWARYADWL)
Asp96 = Asp96 (UniProt position 109, PLLLLDLALLV)
Asp212 = Asp212 (UniProt position 225, LFMVLDVSAKV)
Asp85 = Asp85 (UniProt position 98, WARYADWLFTT)

Bacteriorhodopsin (Halobacterium salinarum (not stated in the article; inferred))
pKa (Asp115): > 9.5
pKa (Arg82): >13.8
pKa (Asp96): >12.0
pKa (Asp212): < 2.5
pKa (Asp85): 2.6
